The target in the assay is Rac1V12, pre-loaded with [γ-32P] GTP (UniProt P63000 1-192). As to the kind of experiment: overlay assay, immobilised Myc-tagged kinase probed with [γ-32P] GTP-loaded GTPase. An excerpt:
PAK4 and PAK5 interact with activated Rac and Cdc42. 293 cells were transfected with equal amounts of expression vectors, encoding the following Myc-tagged proteins: wild type PAK4 (Myc-PAK4), wild type PAK5 (Myc-PAK5), or PAK5ΔGBD. After transient expression, the Myc-tagged proteins were immunoprecipitated from whole cell lysates using a mouse anti-Myc antibody and protein A sepharose. The immunocomplexes were separated by SDS-PAGE and transferred to a PVDF membrane. The membranes were then probed with purified RhoV14, Rac1V12 or Cdc42V12, as indicated. The GTPases were pre-loaded with [γ-^32P] GTP as described in the Materials and Methods. A portion of the lysate was used for Western blot analysis (WB) with an anti-Myc antibody to measure the amount of each transfected protein in the lysates.
The overlay assay is described in (27). Briefly, 293 cells were transfected with 10 µg of empty vector, MycPAK4, or Myc-PAK5. PAK4 and PAK5 were then immunopurified using anti-Myc antibody (9E10, Santa Cruz) and the immunopurified proteins were separated on SDS-PAGE and transferred to a PVDF membrane. The membrane was then washed and blocked with phosphate-buffered saline (PBS) containing 1% bovine serum albumin (BSA) and 100 mM dithiothreitol (DTT). Recombinant GTPases (2 µg) were pre-loaded with [γ-^32P] GTP and were incubated for 5 min with the PVDF membrane. […]

This is an account of results in patent US7482138 (TRUSTEES OF COLUMBIA UNIVERSITY IN THE CITY OF NEW YORK, dated 2009).

B1: Myc-tagged wild type PAK5 (human p21-activated kinase 5) (enzyme, not shown: small tags and cut ends)
chain: MFGKKKKKIEISGPSNFEHRVHTGFDPQEQKFTGLPQQWHSLLADTANRPKPMVDPSCITPIQLAPMKTIVRGNKPCKETSINGLLEDFDNISVTRSNSLRKESPPTPDQGASSHGPGHAEENGFITFSQYSSESDTTADYTTEKYREKSLYGDDLDPYYRGSHAAKQNGHVMKMKHGEAYYSEVKPLKSDFARFSADYHSHLDSLSKPSEYSDLKWEYQRASSSSPLDYSFQFTPSRTAGTSGCSKESLAYSESEWGPSLDDYDRRPKSSYLNQTSPQPTMRQRSRSGSGLQEPMMPFGASAFKTHPQGHSYNSYTYPRLSEPTMCIPKVDYDRAQMVLSPPLSGSDTYPRGPAKLPQSQSKSGYSSSSHQYPSGYHKATLYHHPSLQSSSQYISTASYLSSLSLSSSTYPPPSWGSSSDQQPSRVSHEQFRAALQLVVSPGDPREYLANFIKIGEGSTGIVCIATEKHTGKQVAVKKMDLRKQQRRELLFNEVVIMRDYHHDNVVDMYSSYLVGDELWVVMEFLEGGALTDIVTHTRMNEEQIATVCLSVLRALSYLHNQGVIHRDIKSDSILLTSDGRIKLSDFGFCAQVSKEVPKRKSLVGTPYWMAPEVISRLPYGTEVDIWSLGIMVIEMIDGEPPYFNEPPLQAMRRIRDSLPPRVKDLHKVSSVLRGFLDLMLVREPSQRATAQELLGHPFLKLAGPPSCIVPLMRQYRHH
notes: also called Myc-PAK5
Regarding B1, the binding result is “binds”.
